Consider 1 substance from PMC7153837.

This assay addresses B10v5xhu225L, c-METxEGFR bispecific SEED antibody reconstituted by Npu DnaE protein trans-splicing. Nature of the assay: BLI. A general note: In BLI a coated tip is dipped into the sample, and binding shifts an interference pattern.

“EGFR (EGF receptor), recombinant antigen (from UniProt P00533 25-1210)” had a Kd of 220 nM.

Usually Kd stands for a measure of binding affinity in units of concentration. A low value points to higher affinity.
